How the values were obtained:
Assay in all cases: Safety
Format in all cases: in vivo, human
[1] = tested on: patients with advanced solid tumors; settings: Part B
[2] = tested on: patients with advanced solid tumors; settings: Part FE
[3] = tested on: patients with advanced solid tumors; settings: Part A
[4] = peposertib 100 mg q.d., all grade
[5] = peposertib 100 mg q.d., grade ≥3
[6] = peposertib 150 mg q.d., all grade
[7] = peposertib 150 mg q.d., grade ≥3
[8] = peposertib 200 mg q.d., all grade
[9] = peposertib 200 mg q.d., grade ≥3
[10] = peposertib 250 mg q.d., all grade
[11] = peposertib 250 mg q.d., grade ≥3
[12] = peposertib 100 mg b.i.d., all grade
[13] = peposertib 100 mg b.i.d., grade ≥3
[14] = peposertib 200 mg b.i.d., all grade
[15] = peposertib 200 mg b.i.d., grade ≥3
[16] = peposertib 250 mg b.i.d., all grade
[17] = peposertib 250 mg b.i.d., grade ≥3
[18] = peposertib 300 mg b.i.d., all grade
[19] = peposertib 300 mg b.i.d., grade ≥3
[20] = peposertib 400 mg b.i.d., all grade
[21] = peposertib 400 mg b.i.d., grade ≥3

Substance: Avelumab: anti-PD-L1 antibody, immune checkpoint inhibitor, 800 mg Q2W intravenous infusion [reference compound]
- Avelumab-related TEAE: IRR ([1]; all dose levels): 8 (42.1%)
- Avelumab-related TEAE: fatigue ([1]; all dose levels): 3 (15.8%)
- Serious TEAE, avelumab related [1, 4]: 1 (33.3) n (%)
- TEAE, avelumab related [1, 4]: 3 (100.0) n (%)
- Serious TEAE, avelumab related [1, 5]: 1 (33.3) n (%)
- TEAE, avelumab related [1, 5]: 1 (33.3) n (%)
- Serious TEAE, avelumab related [1, 6]: 1 (33.3) n (%)
- TEAE, avelumab related [1, 6]: 3 (100.0) n (%)
- Serious TEAE, avelumab related [1, 7]: 1 (33.3) n (%)
- TEAE, avelumab related [1, 7]: 1 (33.3) n (%)
- Avelumab-related pneumonitis ([1]; peposertib 200 mg q.d.): 25.0%
- Serious TEAE, avelumab related [1, 8]: 0 n (%)
- TEAE, avelumab related [1, 8]: 3 (75.0) n (%)
- Serious TEAE, avelumab related [1, 9]: 0 n (%)
- TEAE, avelumab related [1, 9]: 0 n (%)
- Avelumab-related pneumonitis ([1]; peposertib 250 mg q.d.): 11.1%
- Serious TEAE, avelumab related [1, 10]: 2 (22.2) n (%)
- TEAE, avelumab related [1, 10]: 7 (77.8) n (%)
- Serious TEAE, avelumab related [1, 11]: 2 (22.2) n (%)
- TEAE, avelumab related [1, 11]: 3 (33.3) n (%)
- Avelumab-related TEAE: diarrhea ([2]; all dose levels): 3 (33.3%)
- Avelumab-related TEAE: fatigue ([2]; all dose levels): 3 (33.3%)
- Serious TEAE, avelumab related [2, 12]: 1 (25.0) n (%)
- TEAE, avelumab related [2, 12]: 3 (75.0) n (%)
- Serious TEAE, avelumab related [2, 13]: 1 (25.0) n (%)
- TEAE, avelumab related [2, 13]: 1 (25.0) n (%)
- Serious TEAE, avelumab related [2, 14]: 2 (40.0) n (%)
- TEAE, avelumab related [2, 14]: 5 (100.0) n (%)
- Serious TEAE, avelumab related [2, 15]: 2 (40.0) n (%)
- TEAE, avelumab related [2, 15]: 3 (60.0) n (%)
- Avelumab-related TEAE: diarrhea ([3]; all dose levels): 4 (13.8%)
- Avelumab-related TEAE: fatigue ([3]; all dose levels): 5 (17.2%)
- Avelumab-related TEAE: rash ([3]; all dose levels): 5 (17.2%)
- Avelumab-related TEAE: vomiting ([3]; all dose levels): 4 (13.8%)
- Serious TEAE, avelumab related [3, 12]: 0 n (%)
- TEAE, avelumab related [3, 12]: 2 (50.0) n (%)
- Serious TEAE, avelumab related [3, 13]: 0 n (%)
- TEAE, avelumab related [3, 13]: 0 n (%)
- Avelumab-related pneumonitis ([3]; peposertib 200 mg b.i.d.): 9.1%
- Serious TEAE, avelumab related [3, 14]: 3 (27.3) n (%)
- TEAE, avelumab related [3, 14]: 8 (72.7) n (%)
- Serious TEAE, avelumab related [3, 15]: 3 (27.3) n (%)
- TEAE, avelumab related [3, 15]: 3 (27.3) n (%)
- Avelumab-related pneumonitis ([3]; peposertib 250 mg b.i.d.): 25.0%
- Serious TEAE, avelumab related [3, 16]: 3 (75.0) n (%)
- TEAE, avelumab related [3, 16]: 3 (75.0) n (%)
- Serious TEAE, avelumab related [3, 17]: 3 (75.0) n (%)
- TEAE, avelumab related [3, 17]: 3 (75.0) n (%)
- Avelumab-related pneumonitis ([3]; peposertib 300 mg b.i.d.): 16.7%
- Serious TEAE, avelumab related [3, 18]: 1 (16.7) n (%)
- TEAE, avelumab related [3, 18]: 3 (50.0) n (%)
- Serious TEAE, avelumab related [3, 19]: 1 (16.7) n (%)
- TEAE, avelumab related [3, 19]: 2 (33.3) n (%)
- Serious TEAE, avelumab related [3, 20]: 3 (75.0) n (%)
- TEAE, avelumab related [3, 20]: 4 (100.0) n (%)
- Serious TEAE, avelumab related [3, 21]: 3 (75.0) n (%)
- TEAE, avelumab related [3, 21]: 4 (100.0) n (%)

Reference: paper PMC10937199 (ESMO Open, 2024)
